Among the data in patent US5721133 are β-Galactosidase Activity (MUG units), GAL1-lacZ reporter in yeast GGY1::171 values, retold here.

For experiment [1], the target named is hybrid regulatory protein encoded by plasmid pHP236 (GAL4 residues 1-147, functional HIV-1 protease linker, GAL4 residues 768-881) (yeast S. cerevisiae; HIV-1 (λHXB-2 subclone)) (UniProt P04585).
Experiment [2] concerns the target hybrid regulatory protein encoded by plasmid p1009 (GAL4 residues 1-147, functional wild-type Coxsackievirus 3C protease linker, GAL4 residues 768-881) (yeast S. cerevisiae; Coxsackievirus (CVB3)) (UniProt P03313).

Consider “hybrid regulatory protein encoded by plasmid pHP236 (GAL4 residues 1-147, functional HIV-1 protease linker, GAL4 residues 768-881) (from UniProt P04585) (enzyme)”, for which the β-Galactosidase Activity (MUG units), GAL1-lacZ reporter in yeast GGY1::171 in experiment [1] is 68 MUG units.

As to “hybrid regulatory protein encoded by plasmid p1009 (GAL4 residues 1-147, functional wild-type Coxsackievirus 3C protease linker, GAL4 residues 768-881) (from UniProt P03313) (enzyme)”, the β-Galactosidase Activity (MUG units), GAL1-lacZ reporter in yeast GGY1::171 in experiment [2] was 14 MUG units.
